Test results taken from US20030087319A1 (published 2003).

T1: recombinant active caspase-3 (PharMingen) (UniProt P42574 29-277, limits assumed)
T1 sequence (looked up): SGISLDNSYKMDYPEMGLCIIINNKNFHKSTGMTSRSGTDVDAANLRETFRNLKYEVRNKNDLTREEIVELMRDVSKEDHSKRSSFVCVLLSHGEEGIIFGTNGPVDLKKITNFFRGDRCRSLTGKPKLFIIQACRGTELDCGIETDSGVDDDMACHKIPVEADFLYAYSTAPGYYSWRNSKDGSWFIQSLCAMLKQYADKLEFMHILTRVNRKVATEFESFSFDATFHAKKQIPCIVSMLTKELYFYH

B1: livin expressed from pcDNA3.1/V5/His-TOPO-livin in transfected HeLa cells, Q96CA5 1-298 (protein, not shown: small tags and cut ends)
chain: MGPKDSAKCLHRGPQPSHWAAGDGPTQERCGPRSLGSPVLGLDTCRAWDHVDGQILGQLRPLTEEEEEEGAGATLSRGPAFPGMGSEELRLASFYDWPLTAEVPPELLAAAGFFHTGHQDKVRCFFCYGGLQSWKRGDDPWTEHAKWFPSCQFLLRSKGRDFVHSVQETHSQLLGSWDPWEEPEDAAPVAPSVPASGYPELPTPRREVQSESAQEPGARDVEAQLRRLQEERTCKVCLDRAVSIVFVPCGHLVCAECAPGLQLCPICRAPVRSRVRTFLS
B2: livin deletion mutant DC89 (other)
chain: MGPKDSAKCLHRGPQPSHWAAGDGPTQERCGPRSLGSPVLGLDTCRAWDHVDGQILGQLRPLTEEEEEEGAGATLSRGPAFPGMGS
modifications: 35[S]-methionine-labeled
notes: also called DC86; NH2-terminal fragment (amino acids 1-86); not shown: myc-His tag from the vector pcDNA3.1/myc-His

Assays:
[1] = biological target: DEVD-cleaving caspases (caspase-3, -6, -7, -8, and -10); experiment: cell-based or functional assay
[2] = biological target: T1, recombinant active caspase-3 …; experiment: in vitro binding, 35S-labeled protein with recombinant active caspase, immunoprecipitation with caspase-specific antibodies, autoradiography
Protocol: Binding between livin and caspases was tested by incubating ³⁵[S]-methionine-labeled livin with recombinant active caspase-3 and -7, immunoprecipitating with caspase specific antibodies, resolving on SDS-PAGE and visualising by autoradiography. Both caspase-3 and -7 interacted with livin, but not with the deletion mutant DC89 used as a negative control. Survivin, which was previously shown to interact with these caspases using whole cell lysates (Tamm et al., ibid), also bound to both caspases in this in vitro assay.
In vitro binding reactions were performed by combining recombinant active caspase-3 or -7 (PharMingen, San Diego, Calif.) with ³⁵[S]-methionine-labeled survivin or livin (wild-type and the three deletion mutants described herein), prepared using the TNT T7 reticulocyte lysate system (Promega Corp., Madison, Wis.). Samples were incubated with polyclonal antibodies against either caspase-3 or -7 (PharMingen, San Diego, Calif.) in 0.5 ml NETN buffer [20 mM Tris (pH 8.0), 100 mM NaCl, 1 mM EDTA, and 0.2% NP-40] for 1.5 hrs at 4° C. followed by protein G sepharose (Amersham Pharmacia Biotech, Piscataway N.J.) for 30 min. All samples were then washed three times in NETN buffer, boiled in Laemmli buffer, and resolved by 4-20% SDS-PAGE. […]

Binder | decrease in caspase activity (DEVD-AFC cleavage) in HeLa cells treated with TNF-a and cycloheximide [1] | binding result [2]
B1 | 15 to 20% | 
B2 |  | no binding
